Results on 5 substances are retold here after patent US20050037963A1.

Experiment [1] concerns the target endogenous FIP200 of NIH 3T3 cells (mouse) (UniProt Q9ESK9). Kind of experiment: cell-based or functional assay.
For experiment [2], the target named is endogenous FAK of NIH 3T3 cells (mouse) (UniProt P34152). Kind of experiment: cell-based or functional assay.
Chain of endogenous FAK of NIH 3T3 cells (mouse) (P34152 2-1052 limits assumed): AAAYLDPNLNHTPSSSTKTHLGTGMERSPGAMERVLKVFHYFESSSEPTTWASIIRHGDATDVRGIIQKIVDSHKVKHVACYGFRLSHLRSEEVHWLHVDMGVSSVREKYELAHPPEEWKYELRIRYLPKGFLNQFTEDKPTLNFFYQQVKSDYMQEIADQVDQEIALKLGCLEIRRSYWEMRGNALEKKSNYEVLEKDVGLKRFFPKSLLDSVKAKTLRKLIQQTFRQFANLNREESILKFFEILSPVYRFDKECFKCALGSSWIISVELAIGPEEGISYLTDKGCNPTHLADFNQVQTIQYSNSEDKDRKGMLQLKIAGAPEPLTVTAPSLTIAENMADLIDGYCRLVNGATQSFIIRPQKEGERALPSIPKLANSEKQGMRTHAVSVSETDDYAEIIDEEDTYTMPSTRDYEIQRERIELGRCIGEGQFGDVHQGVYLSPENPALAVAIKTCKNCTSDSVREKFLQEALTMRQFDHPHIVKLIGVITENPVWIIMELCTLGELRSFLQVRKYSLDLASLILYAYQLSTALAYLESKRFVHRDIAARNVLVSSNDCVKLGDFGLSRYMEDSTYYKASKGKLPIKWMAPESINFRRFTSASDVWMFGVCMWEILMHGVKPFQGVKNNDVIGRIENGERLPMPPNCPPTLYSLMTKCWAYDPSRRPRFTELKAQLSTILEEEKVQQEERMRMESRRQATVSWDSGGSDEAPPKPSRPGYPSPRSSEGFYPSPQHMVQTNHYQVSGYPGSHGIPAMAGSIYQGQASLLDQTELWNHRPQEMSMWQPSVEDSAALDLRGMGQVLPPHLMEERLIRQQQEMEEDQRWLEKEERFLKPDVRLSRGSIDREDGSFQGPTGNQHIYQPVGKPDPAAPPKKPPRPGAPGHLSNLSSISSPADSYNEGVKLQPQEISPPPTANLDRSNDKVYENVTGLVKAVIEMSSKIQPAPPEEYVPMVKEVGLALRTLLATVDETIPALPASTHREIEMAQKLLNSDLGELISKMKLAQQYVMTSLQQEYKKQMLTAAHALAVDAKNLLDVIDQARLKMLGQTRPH

Chain of endogenous FIP200 of NIH 3T3 cells (mouse) (Q9ESK9 whole entry): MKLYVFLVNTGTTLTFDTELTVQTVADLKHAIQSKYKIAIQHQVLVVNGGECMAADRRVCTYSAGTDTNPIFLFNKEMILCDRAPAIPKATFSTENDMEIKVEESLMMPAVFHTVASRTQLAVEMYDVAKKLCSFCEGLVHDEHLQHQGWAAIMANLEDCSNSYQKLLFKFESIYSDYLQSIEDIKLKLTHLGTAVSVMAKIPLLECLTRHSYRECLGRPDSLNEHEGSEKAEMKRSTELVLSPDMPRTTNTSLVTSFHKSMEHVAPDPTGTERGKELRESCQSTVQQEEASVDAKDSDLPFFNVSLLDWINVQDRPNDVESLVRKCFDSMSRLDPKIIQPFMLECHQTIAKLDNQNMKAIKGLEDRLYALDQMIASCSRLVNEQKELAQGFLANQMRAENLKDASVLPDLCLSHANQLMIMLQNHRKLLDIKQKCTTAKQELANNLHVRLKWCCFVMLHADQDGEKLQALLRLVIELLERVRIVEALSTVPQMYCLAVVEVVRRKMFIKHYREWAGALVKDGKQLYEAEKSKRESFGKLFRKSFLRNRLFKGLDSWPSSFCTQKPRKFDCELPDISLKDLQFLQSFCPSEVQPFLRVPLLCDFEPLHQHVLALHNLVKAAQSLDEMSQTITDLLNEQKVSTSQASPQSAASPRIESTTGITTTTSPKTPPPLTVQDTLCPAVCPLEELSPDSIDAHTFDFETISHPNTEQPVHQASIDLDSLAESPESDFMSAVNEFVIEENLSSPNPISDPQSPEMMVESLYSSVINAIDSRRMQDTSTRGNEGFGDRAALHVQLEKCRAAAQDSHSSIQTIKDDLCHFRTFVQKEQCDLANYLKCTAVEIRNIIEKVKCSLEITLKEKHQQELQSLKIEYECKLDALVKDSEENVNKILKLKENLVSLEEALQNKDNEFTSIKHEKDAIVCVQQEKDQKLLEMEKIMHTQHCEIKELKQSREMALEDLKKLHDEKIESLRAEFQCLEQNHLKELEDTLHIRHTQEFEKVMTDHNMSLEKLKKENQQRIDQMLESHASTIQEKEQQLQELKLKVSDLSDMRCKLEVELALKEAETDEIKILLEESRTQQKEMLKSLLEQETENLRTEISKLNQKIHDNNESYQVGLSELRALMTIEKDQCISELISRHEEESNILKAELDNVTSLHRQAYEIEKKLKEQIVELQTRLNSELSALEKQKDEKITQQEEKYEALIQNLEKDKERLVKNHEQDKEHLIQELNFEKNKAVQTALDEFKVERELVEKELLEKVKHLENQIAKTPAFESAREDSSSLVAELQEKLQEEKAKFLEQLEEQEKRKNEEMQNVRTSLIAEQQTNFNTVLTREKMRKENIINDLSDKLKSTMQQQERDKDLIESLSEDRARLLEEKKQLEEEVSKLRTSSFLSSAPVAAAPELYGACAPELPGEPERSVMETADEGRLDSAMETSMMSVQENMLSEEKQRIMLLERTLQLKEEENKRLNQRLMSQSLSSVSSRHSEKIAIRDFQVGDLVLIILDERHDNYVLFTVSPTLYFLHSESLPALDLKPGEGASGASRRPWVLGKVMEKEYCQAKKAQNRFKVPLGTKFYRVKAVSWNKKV

In turn, “HA-tagged KD^KR (FAK kinase domain, residues 403-672, with the kinase-defective mutation K454 to R)” gave a cells entering S-phase on PLL (BrdU incorporation, NIH3T3) in experiment [1] of 30%. Consider “Flag-tagged NT-FIP (NH2-terminal FIP200, residues 1-638) (from UniProt Q8TDY2 1-638)”, for which the inhibition of cell spreading on FN (NIH3T3, β-gal cotransfection) in experiment [2] came to 50%. “Flag-tagged full-length FIP200 (from UniProt Q8TDY2 1-1594)” came in with an inhibition of cell spreading on FN (NIH3T3, β-gal cotransfection) in experiment [2] of 50%. “HA-tagged full-length FIP200 (pKH3-FIP200, residues 1-1591) (from UniProt Q8TDY2 1-1594)”: the inhibition of cell cycle progression (BrdU incorporation, NIH3T3) in experiment [2] stood at 90%. For the substance “Flag-tagged MD-FIP (middle domain FIP200, residues 639-1373) (from UniProt Q8TDY2 639-1373)”, the inhibition of cell spreading on FN (NIH3T3, β-gal cotransfection) in experiment [2] came to 50%.
